Source: publication PMC3343632 (Nature cell biology, 2012)

Molecular target: the molecule itself
Assay: single-molecule TIRF microscopy with stepwise photobleaching

B1: GFP-tagged tailless kinesin-1 motor, taillessKhc::GFP (1-849) (domain or fragment, UniProt P17210 1-849, looked up)
chain: MSAEREIPAEDSIKVVCRFRPLNDSEEKAGSKFVVKFPNNVEENCISIAGKVYLFDKVFKPNASQEKVYNEAAKSIVTDVLAGYNGTIFAYGQTSSGKTHTMEGVIGDSVKQGIIPRIVNDIFNHIYAMEVNLEFHIKVSYYEIYMDKIRDLLDVSKVNLSVHEDKNRVPYVKGATERFVSSPEDVFEVIEEGKSNRHIAVTNMNEHSSRSHSVFLINVKQENLENQKKLSGKLYLVDLAGSEKVSKTGAEGTVLDEAKNINKSLSALGNVISALADGNKTHIPYRDSKLTRILQESLGGNARTTIVICCSPASFNESETKSTLDFGRRAKTVKNVVCVNEELTAEEWKRRYEKEKEKNARLKGKVEKLEIELARWRAGETVKAEEQINMEDLMEASTPNLEVEAAQTAAAEAALAAQRTALANMSASVAVNEQARLATECERLYQQLDDKDEEINQQSQYAEQLKEQVMEQEELIANARREYETLQSEMARIQQENESAKEEVKEVLQALEELAVNYDQKSQEIDNKNKDIDALNEELQQKQSVFNAASTELQQLKDMSSHQKKRITEMLTNLLRDLGEVGQAIAPGESSIDLKMSALAGTDASKVEEDFTMARLFISKMKTEAKNIAQRCSNMETQQADSNKKISEYEKDLGEYRLLISQHEARMKSLQESMREAENKKRTLEEQIDSLREECAKLKAAEHVSAVNAEEKQRAEELRSMFDSQMDELREAHTRQVSELRDEIAAKQHEMDEMKDVHQKLLLAHQQMTADYEKVRQEDAEKSSELQNIILTNERREQARKDLKGLEDTVAKELQTLHNLRKLFVQDLQQRIRKNVVNEESEEDGGSLA
stoichiometry N: 2
